The target of assay [1] is co-repressor peptide. Description: fluorescence polarisation; fluorescence anisotropy assay in vitro, receptor LBD with co-repressor peptide; conditions not shown (Supplementary Methods).
Assay [2] concerns the target Gal4-NCoR (ID 1 + 2). Description: mammalian two-hybrid assay (luciferase reporter, HEK293 cells). To be noted: 20 h, parent: 100, read off a plot.

Regarding “LXRα ligand-binding domain (LBD) p.M346V (domain or fragment)”, in assay [1], the fold reduction of affinity (against the wild-type LBD) was determined as 2 fold.

In the case of “LXRα-VP16 (wild-type liver X receptor-α fused to VP16) mutant M346V [human] / Gal4-NCoR (ID 1 + 2) [not stated] chain 1 M346V”, the percent of parent in assay [2] (GOF sub-panel, highest T0901317 (T09) dose plotted (rightmost point)) is 12 % WT; in assay [2] (GOF sub-panel, untreated condition (leftmost point, plotted an order of magnitude below the lowest T09 dose)), 65 % WT.

Consider “LXRα-VP16 (wild-type liver X receptor-α fused to VP16) mutant L217P [human] / Gal4-NCoR (ID 1 + 2) [not stated] chain 1 L217P”, for which the percent of parent came out at 100 % WT in assay [2] (LOF sub-panel, highest T0901317 (T09) dose plotted (rightmost point)) and 75 % WT in assay [2] (LOF sub-panel, untreated condition (leftmost point, plotted an order of magnitude below the lowest T09 dose)).

The values are drawn from paper PMC11496107.
